Experimental data as given in publication PMC3655416 (Developmental cell, 2013).

Tests used:
[1] = molecular target: Purified SAS-5 C-terminus (C. elegans) (UniProt Q20010); assay: SEC-MALS
SEC = molecular target: the molecule itself; assay: SEC
[2] = molecular target: T1, Full-length SAS-5, purified, on beads (C. elegans, UniProt Q20010 1-404); assay: pull-down
T1 sequence (looked up): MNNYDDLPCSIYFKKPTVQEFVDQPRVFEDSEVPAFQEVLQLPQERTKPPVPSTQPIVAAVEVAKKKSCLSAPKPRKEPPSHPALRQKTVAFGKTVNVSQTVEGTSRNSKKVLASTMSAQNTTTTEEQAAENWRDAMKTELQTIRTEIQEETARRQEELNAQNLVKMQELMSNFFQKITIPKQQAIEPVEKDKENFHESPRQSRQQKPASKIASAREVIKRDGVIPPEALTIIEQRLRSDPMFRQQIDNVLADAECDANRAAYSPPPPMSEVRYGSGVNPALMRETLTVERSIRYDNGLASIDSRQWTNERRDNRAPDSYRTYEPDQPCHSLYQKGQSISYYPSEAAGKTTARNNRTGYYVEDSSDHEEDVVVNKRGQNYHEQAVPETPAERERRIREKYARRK

Molecule: Purified SAS-5 C-terminus (from UniProt Q20010 1-404) (domain or fragment)
- stoichiometry N [1]: 2

B1: WT SAS-6^1-389, purified (domain or fragment, C. elegans, UniProt O62479 1-389, looked up)
chain: MTSKIALFDQTLIASLLQPLSLNQPDFKAYKTKVKLKISEQRNETSGEKELKFEISRSDDFEFLFSETLNNEKYQILARDHDLTVDFDAFPKVIIQHLLCKNIVKNLEEDGEVDARKKAGYHSIADPGKPTEINIILDAEKNFCSFELFSKTPISKGKIFSIKLHAVRGDHLISHLLKICSSQAVKLSTFYKSADELASLRQKCGDLEKQVEKLSGVKEEFEEMSEKFKELEDEVELVKEERENIRLLVEDKEDEVADLKQDTESLQKQLEENQEELEIVGNMLREEQGKVDQLQKRNVAHQKEIGKLRAELGTAQRNLEKADQLLKRNSQQQNQQSLDMRKLGELEADLKEKDSMVESLTETIGILRKELENEKLKAAENMDSFEKLS
- binding result (SEC): binds

B2: Full-length WT SAS-6, purified (natural protein, C. elegans, UniProt O62479 1-492, looked up)
chain: MTSKIALFDQTLIASLLQPLSLNQPDFKAYKTKVKLKISEQRNETSGEKELKFEISRSDDFEFLFSETLNNEKYQILARDHDLTVDFDAFPKVIIQHLLCKNIVKNLEEDGEVDARKKAGYHSIADPGKPTEINIILDAEKNFCSFELFSKTPISKGKIFSIKLHAVRGDHLISHLLKICSSQAVKLSTFYKSADELASLRQKCGDLEKQVEKLSGVKEEFEEMSEKFKELEDEVELVKEERENIRLLVEDKEDEVADLKQDTESLQKQLEENQEELEIVGNMLREEQGKVDQLQKRNVAHQKEIGKLRAELGTAQRNLEKADQLLKRNSQQQNQQSLDMRKLGELEADLKEKDSMVESLTETIGILRKELENEKLKAAENMDSFEKLSMENENLKEKIAHYRAQRFSPAPSGLPGLQTGLTNRLTPSFKPVLGPHTPYGANLNSRTPFRDNTTLNFQNSTIATPHAFRFNSQLIADETTGSSVTNTPPAQR
- stoichiometry N [2]: 2 SAS-6:SAS-5
